# T1: activin A (UniProt P08476 311-426)
# T1 construct: also called ActA
# T1 sequence (looked up): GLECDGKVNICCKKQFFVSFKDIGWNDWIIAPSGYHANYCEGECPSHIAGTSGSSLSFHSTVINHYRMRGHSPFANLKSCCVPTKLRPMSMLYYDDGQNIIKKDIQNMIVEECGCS
# T2: activin B (UniProt P09529 293-407)
# T2 sequence (looked up): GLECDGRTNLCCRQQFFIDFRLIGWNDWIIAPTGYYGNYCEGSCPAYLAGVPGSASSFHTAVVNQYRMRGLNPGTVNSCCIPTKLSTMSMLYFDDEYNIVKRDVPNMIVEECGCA
# T3: GDF11 (UniProt O95390 299-407)
# T3 sequence (looked up): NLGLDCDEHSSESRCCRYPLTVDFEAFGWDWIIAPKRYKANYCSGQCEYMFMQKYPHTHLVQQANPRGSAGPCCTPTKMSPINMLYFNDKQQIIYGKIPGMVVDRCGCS
# B1: ActRIIB(L79D 25-131)-hFc (Fc fusion)
# chain: ETRECIYYNANWELERTNQSGLERCEGEQDKRLHCYASWRNSSGTIELVKKGCWDDDFNCYDRQECVATEENPQVYFCCCEGNFCNERFTHLPEAGGPEVTYEPPPTGGGTHTCPPCPAPELLGGPSVFLFPPKPKDTLMISRTPRVTCVVVDVSHEDPEVKFNWYVDGVEVHNAKTKPREEQYNSTYRVVSVLTVLHQDWLNGKEYKCKVSNKALPAPIEKTISKAKGQPREPQVYTLPPSREEMTKNQVSLTCLVKGFYPSDIAVEWESNGQPENNYKTTPPVLDSDGSFFLYSKLTVDKSRWQQGNVFSCSVMHEALHNHYTQKSLSLSPGK
# notes: Cell purified form without leader
# How the values were obtained:
# Test in all cases: Biacore, steady-state affinity fit
# [1] = molecular target: T1, activin A
# Procedure: (§1) The affinity of ActRIIB variants and other ActRIIB-hFc proteins for several ligands was evaluated in vitro with a Biacore™ instrument. Kd values were obtained by steady-state affinity fit due to the very rapid association and dissociation of the complex, which prevented accurate determination of kₒₙ and koff.
# [2] = molecular target: T2, activin B
# Procedure: as §1
# [3] = molecular target: T3, GDF11
# Procedure: as §1
binder,measurement,setting,value
B1,Kd,[1],22.9 nM
same,Kd,[2],0.621 nM
same,Kd,[3],0.074 nM

# Source: US20240366722A1 (ACCELERON PHARMA, published 2024)
